The subject of the data set is MS2 coat protein. Briefly: apparent KD of MS2 coat protein; designed switch direction (-1 OFF switch, 1 ON switch): -1; higher = weaker reporter binding. An outline of the steps:
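Apparent KD, taken as the median over clusters for each design, was obtained by curve-fitting normalised cluster fluorescence. Designed RNA switches had been transcribed on Illumina chips by stalled E. coli RNA polymerase and titrated with SNAP-549-labelled MS2 coat protein, doubling from 0.7 or 1.5 nM to 3 µM.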

Where [1] appears, read: input ligand: microRNA oligo, concentration not stated.
Setting [2] is: Eterna round: R95, input ligand: microRNA oligo, concentration not stated.
[3] abbreviates: Eterna round: R95, input ligand: FMN 200 uM.
Where [4] appears, read: Eterna round: R95, input ligand: none.

With “AGCCUAGCAGGAUAUGCUCGGGAUUACAUGAGGAUCACCCAUGUGACUGAUUGUUGUCUUGCAGAAGGGCUAGGGA [JL-EX5-4.04 ViennaUCT mod] (Eterna round: R97, puzzle: Exclusion 5)”, the “apparent KD of MS2 coat protein” value is 365 nM (input ligand: FMN 200 uM) and 49 nM (input ligand: none).
“CUUUUGUGAGGAUAUUAGUAGUAAAUAAAUAAAAUUUCUACUGAGAAGGCACAUGAGGAUCACCCAUGUUCCUC [salish99_ex4_r3_061] (Eterna round: R96, puzzle: Exclusion 4)”: the “apparent KD of MS2 coat protein” value (input ligand: FMN 200 uM) was determined as 347 nM, the “apparent KD of MS2 coat protein” value under setting [1] was found to be 34 nM and the “apparent KD of MS2 coat protein” value (input ligand: none) was found to be 33.9 nM.
With “AAAUCGCAAGGAUAUCGUCAGUCUGACAUGAGGAUCACCCAUGUUAUCUUGGUAUCAGAGCGAGAAGGUGCAAAGU [Erbied] (puzzle: Exclusion 5)”, under setting [2], the “apparent KD of MS2 coat protein” value is 12.5 nM.
On to “AGAAAUGCCCAUGGCCGCAAGCUUUUUACUUGUCUUACCACAUGAGGAUCACCCAUGUGACAUGGAUUCCUUAUGAU [Sensor v3, turn-off variant 2 (MOD of Oranla)] (puzzle: Sensor v3, turn-off variant 2)”, for which the “apparent KD of MS2 coat protein” value turned out to be 169 nM under setting [3], 750 nM under setting [2] and 248 nM under setting [4].
Regarding “UACCUGAGGCUUUGCUUUAGGUUUACAUGAGGAUCACCCAUGUAGGAUAUGGUAGGCUUUGCUUACCAGAAGGACAUGUUAAUU [JL ENG3 1.08] (Eterna round: R96, puzzle: Exclusion NG 3)”, the “apparent KD of MS2 coat protein” value reads like this: (input ligand: FMN 200 uM) 190 nM; under setting [1], 64.9 nM; (input ligand: none) 59.9 nM.
For “GGUGCGUAUGUGAGGAUAUGCUGGUCCUUGGAUCUGCAGAAGGCACAUGAGGAUCACCCAUGUGGUGUCGUACC [salish99_Bmod_Ex4_024] (Eterna round: R96, puzzle: Brourd's mod of Exclusion 4)”, the “apparent KD of MS2 coat protein” value was 105 nM (input ligand: FMN 200 uM), 411 nM under setting [1] and 506 nM (input ligand: none).
Take “CGAUAUAAGUCAGGAUAUGAGCGCAACUGACGAUCAGAAGGGACACAUGAGGAUCACCCAUGUGAUCUAUCAAUAUUAUACAUC [Prohibition 92 - Jieux - Exclusion NG 1] (Eterna round: R96, puzzle: Exclusion NG 1)”: the “apparent KD of MS2 coat protein” value is, setting by setting: (input ligand: FMN 200 uM) 25.5 nM; under setting [1], 16.2 nM; (input ligand: none) 21.5 nM.
With “AUUAAACAUGUAGGAUAUGCGUGGCGAAGCUAUGCAGAAGGACAUGAGGAUCACCCAUGUUUUAGCGUCUGCGUACAGAUGCAA [JL ENG1 1.38] (Eterna round: R96, puzzle: Exclusion NG 1)”, the “apparent KD of MS2 coat protein” value was 218 nM (input ligand: FMN 200 uM), 17.8 nM under setting [1] and 30.3 nM (input ligand: none).
As for “CCAAGCUGUGUGAGGAUAUGCUGGACCUUGGUUCAGCAGAAGGCACAUGAGGAUCACCCAUGUGAAAAGCUUGG [Mat - Exclusion 4 - JL Mod - D94] (puzzle: Brourd's mod of Exclusion 4)”, the “apparent KD of MS2 coat protein” value reads like this: under setting [3], 47.5 nM; under setting [2], 16.6 nM; under setting [4], 16.4 nM.
For the sequence “GAGCUAUGAGGAUAUGCAUAUAUGCGGUUUCGUGUGGUACUACAUGAGGAUCACCCAUGUAGAAGGCGUGGCUG [JL-ex2-2.06 mat747 mod] (puzzle: Exclusion 2)”, under setting [2], the “apparent KD of MS2 coat protein” value stood at 14 nM.
As to “AAAGGGCAAGCAUGAUCCCACAUGAGGAUCACCCAUGUGUUCGUCUUAUAGGCUGCUGAGGCUUUUGCCUCGGUGGC [LRO Sensor-off var1-04 loose mod of D91 from Mat747] (Eterna round: R97, puzzle: Sensor, turn-off variant 1)”, the “apparent KD of MS2 coat protein” value is 484 nM (input ligand: FMN 200 uM) and 567 nM (input ligand: none).
Turning to “UUUAUAAUUUCAAUCUUCGCCAGCAAACUUACGCUAGCCACAUGAGGAUCACCCAUGUUUUUUGUUCGUUUUAUUCU [Veedcera] (puzzle: Sensor v3, turn-off variant 2)”, the “apparent KD of MS2 coat protein” value reads like this: under setting [3], 18 nM; under setting [2], 57.5 nM; under setting [4], 19.5 nM.
As to “CAGUACUGAGGAUAUACAUGAGGAUCACCCAUGUGUUCCAGCUAGGAAACUAGCAAAUGUAGAAGGCAGUACUG [Ex3: 827] (Eterna round: R96, puzzle: Exclusion 3)”, under setting [1], the “apparent KD of MS2 coat protein” value came out at 216 nM.
Turning to “GUACUACAUGAGGAUCACCCAUGUCAGGAUAUGGGAAUUUCAUCAAAAGAUGAAAUUCUUAGAAGGGACAGUAC [Omei Ex1 A5] (Eterna round: R97, puzzle: Exclusion 1)”, the “apparent KD of MS2 coat protein” value came out at 24.6 nM (input ligand: FMN 200 uM) and 22.2 nM (input ligand: none).
Regarding “AAUAUUAGAGGAUAUACAGUUUAUUACAUGAGGAUCACCCAUGUUCUUCAAUGUAUAUAAGUAGAAGGCUAAGGAA [EX-5 Malc#2] (puzzle: Exclusion 5)”, the “apparent KD of MS2 coat protein” value turned out to be 157 nM under setting [3], 42.6 nM under setting [2] and 43.7 nM under setting [4].
Turning to “CGUAUCUUUCACGUGAGUAGUGGGUGCAACAGGUGGGUUACAUGAGGAUCACCCAUGUCCUCACUUGCUCGUCUUAU [Grok-var2-05] (puzzle: Sensor v3, turn-off variant 2)”, the “apparent KD of MS2 coat protein” value under setting [3] was determined as 37.8 nM, the “apparent KD of MS2 coat protein” value under setting [2] came out at 124 nM and the “apparent KD of MS2 coat protein” value under setting [4] is 37.5 nM.
Take “AUCAGCUCGUGAGGAUAUACAUGCGUGCUUCGGCACGUAUGAUAGAUCACAUGAGGAUCACCCAUGUAGAAGGUACGAGCUGAU [ENG2/4-C3] (Eterna round: R96, puzzle: Exclusion NG 2)”: the “apparent KD of MS2 coat protein” value runs as follows: (input ligand: FMN 200 uM) 12.6 nM; under setting [1], 10.7 nM; (input ligand: none) 12.6 nM.
Regarding “UUUUAGCGAGGAUAUACAUUUUUUUUAUUAUCCUCAUUAUUACAUGAGGAUCACCCAUGUAGAAGGCGCAUUUU [My Design] (puzzle: Exclusion 2)”, under setting [2], the “apparent KD of MS2 coat protein” value came out at 48.9 nM.
On the same count and under the same terms, with “GUGUAGUCAGGAUAUACAUAGGAAGAGAAGAGAAGAGAAGUACAUGAGGAUCACCCAUGUAGAAGGGACAGUGU [Excluse me!! 6 - Jieux - Exclusion 2] (puzzle: Exclusion 2)” the figure was 21.7 nM.
On to “AAAAAACAAGGAUAUACAAAAAAAAAAUGUGUUAAAAAUCCACAUGAGGAUCACCCAUGUAGAAGGUGUAAAAA [JR_Exclusion2_Sub004] (puzzle: Exclusion 2)”, for which the “apparent KD of MS2 coat protein” value by setting is: under setting [3], 81 nM; under setting [2], 104 nM; under setting [4], 172 nM.
Turning to “UUAUUACAAGCAAGAUCUCACAUGAGGAUCACCCAUGUGCUCGUCUUAUAAGGUACUGUGACGAAAGUCACGGUACC [Eli 100 v1] (Eterna round: R97, puzzle: Sensor, turn-off variant 1)”, the “apparent KD of MS2 coat protein” value (input ligand: FMN 200 uM) stood at 14.8 nM and the “apparent KD of MS2 coat protein” value (input ligand: none) amounted to 17.3 nM.
Take “GUGUAGUCAGGAUAUACAUAGGAAGAUAAGAUAAGAUAAGCACAUGAGGAUCACCCAUGUAGAAGGGACAGUGU [Excluse me!! 1 - Jieux - Exclusion 2] (puzzle: Exclusion 2)”: the “apparent KD of MS2 coat protein” value amounted to 159 nM under setting [3], 74.2 nM under setting [2] and 122 nM under setting [4].
The corresponding values for “GAGUGACAUGAGGAUCACCCAUGUGAGGAUAUCGGACGGACCAAAUUAACAAUAAAAGCGAGAAGGCACAUCGG [Exclusion 1 V12] (puzzle: Exclusion 1)” are 64.7 nM, 57.6 nM and 66.5 nM.
Take “UCCUCACAUGAGGAUCACCCAUGUCAGGAUAUAAGAAACGCGGAAGGCAGCCGCAAAAUUAGAAGGGACAUUAA [EX1 A.25] (Eterna round: R97, puzzle: Exclusion 1)”: the “apparent KD of MS2 coat protein” value (input ligand: FMN 200 uM) amounted to 39.7 nM and the “apparent KD of MS2 coat protein” value (input ligand: none) is 20.6 nM.
As to “AUUGUAUAGGAAGGAUAUAGAAUAUUAUUUUAACAUGAGGAUCACCCAUGUAACCUUAUGUGUAGCUAGAAGGUCCAUUUGUUA [Title] (Eterna round: R96, puzzle: Exclusion NG 2)”, under setting [1], the “apparent KD of MS2 coat protein” value is 228 nM.
For “ACAUGAGGAUCACCCAUGUCCGGCUGGUCCGUCUCGGCUGUCGAGGAUAUAGCUUGGUGUCCGCGCUAGAAGGUGGGAGCUGGU [Aenatbe mod 69] (Eterna round: R96, puzzle: Exclusion NG 3)”, the “apparent KD of MS2 coat protein” value (input ligand: FMN 200 uM) is 99.7 nM, the “apparent KD of MS2 coat protein” value under setting [1] came out at 53.1 nM and the “apparent KD of MS2 coat protein” value (input ligand: none) was 96.6 nM.
Take “CCCUGCAACUGAGGAUAUCACGGACACCGACGUUGAGAAGGCAGACAUGAGGAUCACCCAUGUGAUUUCUCAAUGCUAAACAUU (Eterna round: R96, puzzle: Exclusion NG 1)”: the “apparent KD of MS2 coat protein” value reads like this: (input ligand: FMN 200 uM) 66.4 nM; under setting [1], 29.6 nM; (input ligand: none) 36.8 nM.
For “ACGCCGCAAGGAUAUCGUAAAGCAGACAUGAGGAUCACCCAUGUGAUAUCAGAAAGGCCACGAGAAGGUGCACAAG [Tigeor] (puzzle: Exclusion 5)”, the “apparent KD of MS2 coat protein” value runs as follows: under setting [3], 32.4 nM; under setting [2], 20.3 nM; under setting [4], 21.3 nM.
As for “UCUAGACAUGAGGAUCACCCAUGUGAGGAUAUGAUGCGAUCGUCGAAAGACGAUAGCAUCAGAAGGCACAAAUG [Fiskers Ex 1 - 12] (Eterna round: R96, puzzle: Exclusion 1)”, the “apparent KD of MS2 coat protein” value reads like this: (input ligand: FMN 200 uM) 200 nM; under setting [1], 53.6 nM; (input ligand: none) 72.3 nM.
For “CUGCUCCGUGUAGGAUAUGCAUACUCCCAUUAUGCAGAAGGACAUGAGGAUCACCCAUGUAUGUUAUUAUCACGUGUUGCGUAC [Design 14] (Eterna round: R96, puzzle: Exclusion NG 1)”, under setting [1], the “apparent KD of MS2 coat protein” value stood at 20 nM.

For the origin of these results see the supplement of paper PMC9170038.
